The values that follow come from patent US20180155451A1 (published 2018).

Residue numbers refer to the chain shown, from its start. Numbers in names are those of the source. Like-named read-outs stand apart in the source and are kept apart here.

For assay [1], the target named is T1, FcgRIIb (human, UniProt P31994 43-217).
T1 construct: extracellular domain; also called FcγRIIb; CD32B; not shown: C-terminal His tag
T1 sequence (looked up): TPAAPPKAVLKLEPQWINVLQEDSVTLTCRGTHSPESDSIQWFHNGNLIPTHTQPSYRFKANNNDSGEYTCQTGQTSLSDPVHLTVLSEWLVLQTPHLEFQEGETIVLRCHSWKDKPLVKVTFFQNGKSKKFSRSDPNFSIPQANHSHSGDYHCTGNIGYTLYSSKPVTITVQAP
In words: SPR (Biacore); KD of H240-Kn120/H240-Hl068/L73-k0 divided by KD of the sample. The method, then: (§1) The variants described above were assessed for their binding to FcgR according to the method described in Reference Example 8.
(§2) Analysis of interaction between obj ective antibody and the FcγR was carried out using Biacore T100 (GE Healthcare), Biacore T200, Biacore A100, and Biacore 4000. HBS-EP+ (GE Healthcare) was used as the running buffer, and the measurement temperature was set to 25° C. Chips produced by immobilizing the antigen peptide by the amine coupling method to a Series S sensor Chip CM5 (GE Healthcare), chips produced by allowing preliminarily biotinylated antigen peptides to interact with and immobilize onto a Series S Sensor Chip SA (certified) (GE Healthcare), chips produced by immobilizing Protein L (ACTIGEN, BioVision) to Series S Sencor Chip CM5 (GE Healthcare), or chips produced by immobilizing Protein A/G (Thermo Scientific) to Series S Sencor Chip CM5 (GE Healthcare) were used. Antibodies of interest were captured onto these chips, and allowed to interact to each FcγR diluted with running buffer. To regenerate and repeatedly use the chip, the antibodies captured onto the chip were washed off by reacting 10 mM glycine-HCl, pH 1.5.

Assay [2] addresses T2, FcgRIIIaV (human, UniProt P08637 17-208).
T2 construct: extracellular domain; V158 allotype; also called FcγRIIIa V; not shown: C-terminal His tag
The assay is described as above. The method, then:
as §1, §2

For assay [3], the target named is T3, FcgRIIaR (human, UniProt P12318 34-217).
T3 construct: extracellular domain; R131 allotype; also called FcγRIIa R; FcgRIIa type R; not shown: C-terminal His tag
T3 sequence (looked up): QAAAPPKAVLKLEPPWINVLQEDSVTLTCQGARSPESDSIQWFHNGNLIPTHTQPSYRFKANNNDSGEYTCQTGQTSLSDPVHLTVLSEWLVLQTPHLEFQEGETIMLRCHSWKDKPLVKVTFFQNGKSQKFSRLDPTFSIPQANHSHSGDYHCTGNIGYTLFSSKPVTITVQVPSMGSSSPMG
Described as above. How it is done: as §1, §2

The target in assay [4] is T4, FcgRIIaH (human, UniProt P12318 34-217).
T4 construct: extracellular domain; H131 allotype; also called FcγRIIa H; FcgRIIa type H; not shown: C-terminal His tag
T4 sequence (looked up): T3 sequence (looked up) with R134H
Described as above. How it is done:
as §1, §2

The target in assay [5] is T5, FcgRIIIaF (human, UniProt P08637 17-208).
T5 construct: extracellular domain; F158 allotype; also called FcγRIIIa F; not shown: C-terminal His tag
Described as above. The method, then:
as §1, §2

Assay [6] has as its target T1, FcgRIIb. In words: SPR (Biacore), antibody captured on chip, FcgR as analyte. How it is done:
(§3) The variants described above were assessed for their binding to FcγR according to the method described in Reference Example 8.
as §2

In assay [7] the target is T2, FcgRIIIaV. The assay is described as above. How it is done:
as §3, §2

Assay [8] deals with T3, FcgRIIaR. Described as above. The method, then: as §3, §2
Assay [9] has as its target T4, FcgRIIaH. The assay is described as above. How it is done:
as §3, §2

Assay [10] has as its target T5, FcgRIIIaF. The assay is described as above. How it is done:
as §3, §2

Assay [11] concerns the target T6, FcgRIa (human, UniProt P12314 16-292).
T6 construct: extracellular domain; also called FcγRIa; FcγRI; not shown: C-terminal His tag
Described as above. The method, then:
as §3, §2

The target of assay [12] is T1, FcgRIIb. Described as above. The method, then:
as §1, §2
The source holds these as a separate data set.

In assay [13] the target is T2, FcgRIIIaV. The assay is described as above. How it is done:
as §1, §2
The source holds these as a separate data set.

The target of assay [14] is T3, FcgRIIaR. Described as above. How it is done: as §1, §2
The source holds these as a separate data set.

Assay [15] concerns the target T4, FcgRIIaH. The assay is described as above. The method, then: as §1, §2
This is another data set of the same source.

Assay [16] deals with T5, FcgRIIIaF. The description is as above. The method, then:
as §1, §2
This is another data set of the same source.

The target of assay [17] is T6, FcgRIa. The description is as above. How it is done:
as §1, §2
This is another data set of the same source.

Assay [18] concerns the target T1, FcgRIIb. In words: SPR (Biacore); KD of H240-Kn120/H240-Hl068/L73-k0 divided by KD of the sample. How it is done: as §3, §2
This is another data set of the same source.

For assay [19], the target named is T2, FcgRIIIaV. Described as above. The method, then:
as §3, §2
This is another data set of the same source.

Assay [20] has as its target T3, FcgRIIaR. The description is as above. How it is done:
as §3, §2
This is another data set of the same source.

Assay [21] addresses T4, FcgRIIaH. Described as above. How it is done:
as §3, §2
The source holds these as a separate data set.

In assay [22] the target is T5, FcgRIIIaF. Described as above. How it is done:
as §3, §2
The source holds these as a separate data set.

T2 sequence (P08637 17-208 F176V limits assumed): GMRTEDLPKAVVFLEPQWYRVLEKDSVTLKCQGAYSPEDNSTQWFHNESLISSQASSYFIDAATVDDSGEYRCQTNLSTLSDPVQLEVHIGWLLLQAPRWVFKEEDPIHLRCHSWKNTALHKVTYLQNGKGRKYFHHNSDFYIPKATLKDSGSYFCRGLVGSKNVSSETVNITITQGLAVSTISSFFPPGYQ
T5 sequence (P08637 17-208): as the sequence (P08637 17-208 F176V limits assumed) above, with V160F counted along it
T6 sequence (P12314 16-292): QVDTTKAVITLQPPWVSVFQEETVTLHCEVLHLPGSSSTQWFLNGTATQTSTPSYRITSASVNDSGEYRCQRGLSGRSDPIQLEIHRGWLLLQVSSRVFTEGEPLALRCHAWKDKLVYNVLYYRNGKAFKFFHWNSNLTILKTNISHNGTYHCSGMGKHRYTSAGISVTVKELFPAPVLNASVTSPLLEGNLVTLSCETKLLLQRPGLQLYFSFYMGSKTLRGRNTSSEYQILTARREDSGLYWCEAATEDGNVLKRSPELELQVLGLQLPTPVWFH

B1: H240-Kn120/H240-Hl089/L73-k0 (antibody, human IgG1, kappa)
heavy 1: QDQLVQSGAEVKKPGASVKVSCKASGFNIKDTYIQWVRQAPGQGLEWMGRIDPLRKQTKYREKFEGRVTITADTSTNTAYMELSSLRSEDTAVYYCVRSGREFDYWGQGTLVTVSSASTKGPSVFPLAPSSKSTSGGTAALGCLVKDYFPEPVTVSWNSGALTSGVHTFPAVLQSSGLYSLSSVVTVPSSSLGTQTYICNVNHKPSNTKVDKKVEPKSCDKTHTCPPCPAPEYYWGPMVFLFPPKPKDTLMISRTPEVTCVVVDVSDEDPEVKFNWYVDGVEVHNAKTKPREEQYNATYRVVSVLTVLHQDWLNGKEYKCKVSNKDLPAPIEKTISKAKGQPREPQVCTLPPSRDELTKNQVSLWCLVKGFYPSDIAVEWESNGQPENNYKTTPPVLDSDGSFFLYSKLTVDKSRWQQGNVFSCSVMHEALHNHYTQKSLSLSP
heavy 2: QDQLVQSGAEVKKPGASVKVSCKASGFNIKDTYIQWVRQAPGQGLEWMGRIDPLRKQTKYREKFEGRVTITADTSTNTAYMELSSLRSEDTAVYYCVRSGREFDYWGQGTLVTVSSASTKGPSVFPLAPSSKSTSGGTAALGCLVKDYFPEPVTVSWNSGALTSGVHTFPAVLQSSGLYSLSSVVTVPSSSLGTQTYICNVNHKPSNTKVDKKVEPKSCDKTHTCPPCPAPELLTGPSVFLFPPKPKDTLMISRTPEVTCVVVDVSHEEPEVKFNWYVDGVEVHNAKTKPREEQYNSTYRVVSVLTVLHQDWLNGKEYKCKVSNDALPKPIEETISKAKGQPREPQVYTLPPSRCELTKNQVSLSCAVKGFYPSDIAVEWESNGQPENNYKTTPPVLDSDGSFFLVSKLTVDKSRWQQGNVFSCSVMHEALHNHYTQKSLSLSP
light: DIQMTQSPSSLSASVGDRVTITCRASQDIHKYIAWYQQKPGQAPRLLIQYTSTLQPGVPSRFSGSGSGTDYTFTISSLQPEDIATYYCLQYEQLRTFGGGTKVEIKRTVAAPSVFIFPPSDEQLKSGTASVVCLLNNFYPREAKVQWKVDNALQSGNSQESVTEQDSKDSTYSLSSTLTLSKADYEKHKVYACEVTHQGLSSPVTKSFNRGEC
notes: Heterodimerized anti-epiregulin antibody; G236T in the Hl068 chain; also called H240-Kn120/H240-HI089/L73-k0
For the molecule B1, the “Relative KD” value with FcgRIIb [1] worked out at 0.8; with FcgRIIIaV [2], 0.1; with FcgRIIaR [3] it was 1.4; in the assay with FcgRIIaH [4], 1; with FcgRIIIaF [5], 0.2; with FcgRIIb [18] it was 0.8. In addition, the “Relative KD” value turned out to be 0.1 with FcgRIIIaV [19], 1.4 with FcgRIIaR [20], 1 with FcgRIIaH [21] and 0.2 with FcgRIIIaF [22]. Also, the Kd came to 190 nM with FcgRIIb [6]; 5.4 nM with FcgRIIIaV [7]; 14 nM with FcgRIIaR [8]; 41 nM in the assay with FcgRIIaH [9]; 12 nM with FcgRIIIaF [10]; 0.18 nM with FcgRIa [11]. The dissociation constant Kd with FcgRIIb [12] was 190 nM; in the assay with FcgRIIIaV [13], 5.4 nM; in the assay with FcgRIIaR [14] it was 14 nM; with FcgRIIaH [15], 41 nM; with FcgRIIIaF [16] it was 12 nM; with FcgRIa [17], 0.18 nM.
